Two molecules from patent US20220267402A1 (SERPENTIDE, published 2022) can be followed below.

The target of experiment [1] is human GLP1 receptor (on HEK293-CNG-HuGLP1R stable cells) (human) (UniProt P43220). The experiment can be described thus: cell-based or functional assay.
The target in experiment [2] is human GLP1 receptor (on HEK293-CNG-HuGLP1R stable cells) (human, UniProt P43220 24-463). The experiment can be described thus: cell-based or functional assay.

As for “Eli Lilly Trulicity (Lot#02448599) (Fc fusion)”, the EC50, cAMP bioassay on HEK293-CNG-HuGLP1R cells in experiment [1] came out at 22 nM.

B1: p9: hGLP1R ECD (1-116)-3xG4S-RGER-Trulicity (lot U2243DL140-14/P9EA001) (Fc fusion)
chain: RPQGATVSLWETVQKWREYRRQCQRSLTEDPPPATDLFCNRTFDEYACWPDGEPGSFVNVSCPWYLPWASSVPQGHVYRFCTAEGLWLQKDNSSLPWRDLSECEESKGGGGSGGGGSGGGGSRGERHGEGTFTSDVSSYLEEQAAKEFIAWLVKGGGGGGGSGGGGSGGGGSAESKYGPPCPPCPAPEAAGGPSVFLFPPKPKDTLMISRTPEVTCVVVDVSQEDPEVQFNWYVDGVEVHNAKTKPREEQFNSTYRVVSVLTVLHQDWLNGKEYKCKVSNKGLPSSIEKTISKAKGQPREPQVYTLPPSQEMTKNQVSLTCLVKGFYPSDIAVEWESNGQPENNYKTTPPVLDSDGSFFLYSRLTVDKSRWQEGNVFSCSVMHEALHNHYTQKSLSLSLG
Consider B1, for which the “EC50, cAMP bioassay on HEK293-CNG-HuGLP1R cells (after Factor Xa predigestion)” value in experiment [2] amounted to 17.6 nM.
